Results as given in patent US7879563B2, “Method of screening for a carnitine transporter agonist or antagonist and its uses” (Sanofi-Aventis Deutschland GmbH, priority 2004, dated 2011).

Substrate: C[N+](C)(C)C[C@H](O)CC(=O)[O-]
Experiment: Tracer flux transport measurement in Xenopus laevis oocytes injected with cRNA comprising SEQ ID NO: 4
Type: cell-based, human
Conditions: other: concentration dependency of L-carnitine transport, Michaelis-Menten, uptake measured for 1 hour, FIG. 2
Description: The transport measurements of radioactively labeled compounds were executed using Xenopus laevis oocytes in the so-called “tracer flux method”, wherein the transport rate of substrates across the oocyte membrane into the cytosol is determined.
A Xenopus laevis oocyte was injected with a cRNA molecule comprising SEQ ID NO: 4.
Injected oocytes were kept in the culture medium ORi comprising gentamycin (50 mg/L) at 18° C. until the measurement of substrate uptake. Injured, acutely altered or later heavily damaged cells were discarded.
After 72 hours the oocyte was used for screening for a carnitine transporter agonist or antagonist. […]
The oocytes were washed four times in 15 ml ice cold ORi. […] The radioactivity of the lysates was determined in a liquid scintillation counter comprising a correction for the luminescence and an external standard. Each vial was counted for 5 minutes. […]
For the determination of concentration-dependent substrate uptake serial dilutions of the investigated substrate were prepared and the radioactivity was distributed, such that in each reaction mixture between 10000 and 20000 cpm were counted in the supernatant. For the KM determination the substrate uptake was measured for 1 hour. […] The transport rates were calculated and graphically plotted against the substrate concentration and adapted mathematically according to the Michaelis-Menten equation.

B1: carnitine transporter comprising the amino acid sequence SEQ ID NO: 1 (Homo sapiens) (protein)
chain: MVRLVLPNPGLDARIPSLAELETIEQEEASSRPKWDNKAQYMLTCLGFCVGLGNVWRFPYLCQSHGGGAFMIPFLILLVLEGIPLLYLEFAIGQRLRRGSLGVWSSIHPALKGLGLASMLTSFMVGLYYNTIISWIMWYLFNSFQEPLPWSDCPLNENQTGYVDECARSSPVDYFWYRETLNISTSISDSGSIQWWMLLCLACAWSVLYMCTIRGIETTGKAVYITSTLPYVVLTIFLIRGLTLKGATNGIVFLFTPNVTELAQPDTWLDAGAQVFFSFSLAFGGLISFSSYNSVHNNCEKDSVIVSIINGFTSVYVAIVVYSVIGFRATQRYDDCFSTNILTLINGFDLPEGNVTQENFVDMQQRCNASDPAAYAQLVFQTCDINAFLSEAVEGTGLAFIVFTEAITKMPLSPLWSVLFFIMLFCLGLSSMFGNMEGVVVPLQDLRVIPPKWPKEVLTGLICLGTFLIGFIFTLNSGQYWLSLLDSYAGSIPLLIIAFCEMFSVVYVYGVDRFNKDIEFMIGHKPNIFWQVTWRVVSPLLMLIIFLFFFVVEVSQELTYSIWDPGYEEFPKSQKISYPNWVYVVVVIVAGVPSLTIPGYAIYKLIRNHCQKPGDHQGLVSTLSTASMNGDLKY
notes: expressed in transfected cells; host or cells: Xenopus laevis oocytes injected with cRNA
With B1 the Km was 15 µM.
